From US20180214568A1 (US Dept. of Health and Human Services, published 2018) come the findings set out here.

This experiment addresses T1, mouse CD56 (mouse, UniProt P13595 20-711, limits assumed).
T1 construct: the construct is not described
Put plainly: ELISA on coated mouse CD56 ectodomain, IgG titrated, OD405. As for the experimental part: Protein was coated on ELISA plate wells at 50 ng/well in PBS at 4° C. overnight. After blocking of unbound surface with 2% non-fat dried milk in PBST, serially diluted antibody solutions were added, and incubated for 2 hours at 37° C. The bound human antibodies were detected with goat anti-human Fc specific IgG conjugated with horseradish peroxidase.

T1 sequence (P13595 20-711 limits assumed): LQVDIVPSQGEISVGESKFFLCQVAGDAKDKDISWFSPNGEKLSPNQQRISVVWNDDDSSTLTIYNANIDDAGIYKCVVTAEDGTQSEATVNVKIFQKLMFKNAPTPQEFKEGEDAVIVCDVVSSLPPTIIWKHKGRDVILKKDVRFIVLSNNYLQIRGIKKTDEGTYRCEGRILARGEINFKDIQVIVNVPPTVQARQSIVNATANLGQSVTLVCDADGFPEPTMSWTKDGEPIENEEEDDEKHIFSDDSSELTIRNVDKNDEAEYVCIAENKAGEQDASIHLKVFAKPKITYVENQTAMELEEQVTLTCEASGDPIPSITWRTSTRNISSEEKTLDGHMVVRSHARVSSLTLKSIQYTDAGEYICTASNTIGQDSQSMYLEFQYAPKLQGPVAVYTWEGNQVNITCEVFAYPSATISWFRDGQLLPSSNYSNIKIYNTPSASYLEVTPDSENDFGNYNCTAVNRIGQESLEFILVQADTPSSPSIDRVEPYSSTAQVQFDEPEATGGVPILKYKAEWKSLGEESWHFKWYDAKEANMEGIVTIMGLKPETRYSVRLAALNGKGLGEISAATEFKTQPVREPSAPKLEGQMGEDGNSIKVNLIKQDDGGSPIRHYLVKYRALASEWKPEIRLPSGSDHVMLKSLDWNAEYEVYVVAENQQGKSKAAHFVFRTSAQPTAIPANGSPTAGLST

B1: m900 IgG1 (antibody, V domains shown)
VH: not shown
VL: EIVLTQSPATLSLSPGERATLSCRASQSVSSYLAWYQQKPGQAPRLLIYDASNRATGIPARFSGSGSGTDFTLTISSVQAEDVGVYYCQQYHGTPTFGQGTKVEIKR
Take B1: the binding result was “no binding (tested: 1000 nM)”.

B2: m906 IgG1 (antibody, V domains shown)
VH: EVQLVQSGAEVKKPGSSVKVSCKASGGTFTGYYMHWVRQAPGQGLEWMGWINPNSGGTNYAQKFQGRVTMTRDTSISTAYMELSRLRSDDTAVYYCARDLSSGYSGYFDYWGQGTLVTVSS
VL: DVVMTQSPLSLPVTPGEPASISCRSSQSLLHSNGYNFLDWYLQKPGQSPQLLIYLGSNRASGVPDRFSGSGSGTDFTLKISRVEADDVGVYYCMQSLQTPWTFGHGTKVEIKR
B2: the “EC50 (read off the curve)” value was approximately 80 pM.
